{"source": "paper doi:10.1101/2021.04.18.440036", "target": "protective antigen (PA) prepore (Bacillus anthracis)", "test": "cryo-EM structure", "note": "“And” between values parts separate entries of the source, which are not always exact repeats. Equal values may be shown once."}
{"substance": "protective antigen (PA) prepore (complex)", "values": [{"measurement": "stoichiometry N", "value": "7 and 8"}]}
